# Patent US20140329228A1 (Ushio Denki Kabushiki Kaisha, priority 2011, published 2014)
# B1: Anti-Methamphetamine: same-color double-label Fab complex of anti-methamphetamine antibody; TAMRA-labeled VL (SEQ ID NO: 25) and VH (SEQ ID NO: 26) (antibody, V domains shown)
# VH: QVQLQQSGPELVKPGASVKVSCKASGYPSTRFYIYWVKQSHGKSLEWIGNIDPYNGGTTYNQKFKGKATLTIDKSSTTAYVHLNSLTSEDSAVYYCAGFHYSGQLDTDVWGAGTKVTVSS
# VL: DIVMTQSPAFMSASPGEKVTLTCSASSSVSSTFLYWYQQKPGSSPKLWIYSTSNLASGVPSRFSGSGSGTSYSLTINSMEAEDAASYFCHQWSNYPFTFGSGTKLEIKR
# modifications: Fab; TAMRA labels; Meth-VH-26; Meth-VL-25
# How the values were obtained:
# Type in all cases: binding
# [1] = Fluorescence enhancement of fluoro-labeled Fab complex / scFv with morphine; conditions: antigen Morphine 100 μg/mL versus absence of antigen
# [2] = Fluorescence enhancement of fluoro-labeled Fab complex / scFv with methamphetamine; conditions: antigen Methamphetamine 100 μg/mL versus absence of antigen
# [3] = Fluorescence enhancement of fluoro-labeled Fab complex with amphetamine; conditions: antigen Amphetamine 100 μg/mL versus absence of antigen
# [4] = Fluorescence enhancement of fluoro-labeled Fab complex with MDMA; conditions: antigen MDMA 100 μg/mL versus absence of antigen
# [5] = Fluorescence enhancement of fluoro-labeled Fab complex with MDA; conditions: antigen MDA 100 μg/mL versus absence of antigen
# [6] = Fluorescence enhancement of fluoro-labeled Fab complex / scFv with cocaine; conditions: antigen Cocaine 100 μg/mL versus absence of antigen
# [7] = Fluorescence enhancement of fluoro-labeled Fab complex / scFv with ketamine; conditions: antigen Ketamine 100 μg/mL versus absence of antigen
molecule,measurement,setting,value
B1,Fluorescence enhancement in the presence of 100 μg/mL antigen,[1],0.9
same,Fluorescence enhancement in the presence of 100 μg/mL antigen,[2],7.2
same,Fluorescence enhancement in the presence of 100 μg/mL antigen,[3],6.8
same,Fluorescence enhancement in the presence of 100 μg/mL antigen,[4],7.2
same,Fluorescence enhancement in the presence of 100 μg/mL antigen,[5],5.6
same,Fluorescence enhancement in the presence of 100 μg/mL antigen,[6],1.0
same,Fluorescence enhancement in the presence of 100 μg/mL antigen,[7],1.0
